Experiments:
Type in all cases: biochemical
[1] = Kinetic measurements (KM, Vmax) of Endo-S/Endo-S2 mutants for SCT-Oxa; settings: for Km / kcat: Endo-S2 mutants, donor substrate SCT-Oxa, PBS pH 7.4, 30° C.
Experimental: Using a sialylated glycan oxazoline (SCT-Oxa) as the donor and the deglycosylated rituximab as the acceptor substrate, we measured the kinetic parameters of the enzyme catalyzed glycosylation were measured. A mass spectrometry-based approach with an internal standard was used to estimate the product formation.^31-33.
(§1) Peptide-N-Glycosidase F (PNGase F) treated rituximab was used as the internal standard due to its similarities to the deglycosylated and transferred product in terms of their molecular structures and ionization efficiencies. After PNGase F treatment, a mutation will be introduced into the amino acid sequence of rituximab so the product antibody will not interfere with the reaction via re-glycosylation^35. A standard product S2G2F-rituximab was synthesized following the previously reported procedure^29. […] Serial dilutions containing a gradient of S2G2F-rituximab (0, 0.25, 0.5, 0.75, 1.0, 1.25 and 1.5 μM) were mixed with a stock solution containing 0.67 μM internal standard. These mixed sample solutions were quantified by selected ion monitoring (SIM) to calculate the single-point normalization factor^31. The factor could then be used to calculate the relative amount of the final product N-glycoform for each reaction in the following experiments.
Measurements of KM and Vmax for SCT-oxa. Serial dilutions with a total volume of 10 μL were prepared with a gradient of SCT-oxa concentrations and a constant deglycosylated antibody concentration mixed in PBS, pH 7.4. Each reaction was initiated by adding 1μμL, of Endo-S/S2 mutants with a concentration of 0.1 mg/M1 and the reaction was conducted at 30° C. The concentrations of SCT-oxa were within a range from 6.25 μM to 400 μM. For each reaction, three aliquots were taken at t=1, 2 and 3 min and immediately quenched in 100 μL 0.1% formic acid. The quenched reaction samples were then characterized by ESI-MS, and the concentration of product in each mixture was calculated using the normalization factor, as shown above. […] The KM and Vmax were measured by fitting the initial velocity against the SCT-oxa concentration using the GraphPad Prism7 program. The experiments were conducts in triplicate to determine the error in these measurements.

[2] = system: deglycosylated rituximab; experiment: Kinetic measurements (KM, Vmax) of Endo-S/Endo-S2 mutants for deglycosylated rituximab
From the text: as §1
Measurements of KM and Vmax for SCT-oxa. Serial dilutions with a total volume of 10 μL were prepared with a gradient of SCT-oxa concentrations and a constant deglycosylated antibody concentration mixed in PBS, pH 7.4. Each reaction was initiated by adding 1μμL, of Endo-S/S2 mutants with a concentration of 0.1 mg/M1 and the reaction was conducted at 30° C. The concentrations of SCT-oxa were within a range from 6.25 μM to 400 μM. For each reaction, three aliquots were taken at t=1, 2 and 3 min and immediately quenched in 100 μL 0.1% formic acid. The quenched reaction samples were then characterized by ESI-MS, and the concentration of product in each mixture was calculated using the normalization factor, as shown above. A linear progression curve was confirmed for each reaction by sampling at multiple early time points and plotting them in the same graph, which emphasized that the V0 measured indeed represents the initial rate of each reaction. The KM and Vmax were measured by fitting the initial velocity against the SCT-oxa concentration using the GraphPad Prism7 program. The experiments were conducts in triplicate to determine the error in these measurements.
The KM and Vmax values of both Endo-S and Endo-S2 mutants for the deglycosylated antibody substrate were measured in a similar fashion as to those for SCT-Oxa. In the serial reactions, the concentrations of antibody range from 0.313 μM to 20 μM, whereas the SCT-Oxa concentration was fixed at 400 μM. A similar control reaction was also performed for each concentration to monitor the non-enzymatic side reactions.

[3] = system: rituximab; experiment: Hydrolysis activity assay of Endo-S and D233 mutants, LC-ESI-MS; settings: rituximab 1.0 mg/mL as substrate, enzyme 0.01 mg/mL, PBS pH 7.4, 30° C., 5 min, duplicate
Experimental: (§2) The hydrolytic activity of the mutants generated was evaluated using rituximab as the substrate, and the transglycosylation activity was evaluated using the sugar oxazoline and the deglycosylated rituximab as the donor and acceptor substrates, respectively (Scheme 1).
(§3) The LC-MS characterization of different antibody glycoforms was conducted on an Exactive Plus Orbitrap instrument (Thermo Scientific). The intact antibody sample was analyzed with a Waters XBridge™ BEH300 C4 column (3.5 μm, 2.1×50 mm). The program includes a 9 min linear gradient of 5-90% MeCN containing 0.1% formic acid at a flow rate of 0.4 mL/min. The original mass data were processed through deconvolution and integration through MagTran Software (Amgen).
as §1
(§4) The hydrolytic activity of each Endo-S mutants and the wild-type (0.01 mg/mL) was assayed in PBS (pH 7.4, 10 μl) at 30° C. with synthetic biantennary sialo-complex-type rituximab (1.0 mg/mL, 6.9 μM) as the starting material. Each reaction was terminated at 5 min and an aliquot was taken from the reaction mixture and dissolved in 0.1% formic acid. The relative quantity of the hydrolysis product was calculated through deconvolution and integration of the selected MS peaks. The experimental details of product quantification using LC-MS are illustrated below. The transglycosylation activity of Endo-S was measured in a similar fashion: deglycosylated Rituximab (10.0 mg/mL, 69 μM) was incubated with SCT-Oxa (1.38 mM, 20 eq) under catalysis of Endo-S enzymes (0.01 mg/mL) under the same condition as hydrolysis. The transglycosylation product SCT-Rituximab was analyzed as mentioned above. Both functional assays were repeated twice for each mutant and the wild-type, and the average activity was recorded

[4] = system: deglycosylated rituximab; experiment: Transglycosylation activity assay of Endo-S and D233 mutants, LC-ESI-MS
Experimental: as §2, §3, §1, §4

[5] = Endo-S2, glycan oxazoline substrate
[6] = Endo-S2 mutants, acceptor substrate deglycosylated rituximab, SCT-Oxa fixed at 400 μM

B1: Endo-S2 D184M (protein)
chain: EEKTVQTGKTDQQVGAKLVQEIREGKRGPLYAGYFRTWHDRASTGIDGKQQHPENTMAEVPKEVDILFVFHDHTASDSPFWSELKDSYVHKLHQQGTALVQTIGVNELNGRTGLSKDYPDTPEGNKALAAAIVKAFVTDRGVDGLDIMIEHEFTNKRTPEEDARALNVFKEIAQLIGKNGSDKSKLLIMDTTLSVENNPIFKGIAEDLDYLLRQYYGSQGGEAEVDTINSDWNQYQNYIDASQFMIGFSFFEESASKGNLWFDVNEYDPNNPEKGKDIEGTRAKKYAEWQPSTGGLKAGIFSYAIDRDGVAHVPSTYKNRTSTNLQRHEVDNISHTDYTVSRKLKTLMTEDKRYDVIDQKDIPDPALREQIIQQVGQYKGDLERYNKTLVLTGDKIQNLKGLEKLSKLQKLELRQLSNVKEITPELLPESMKKDAELVMVGMTGLEKLNLSGLNRQTLDGIDVNSITHLTSFDISHNSLDLSEKSEDRKLLMTLMEQVSNHQKITVKNTAFENQKPKGYYPQTYDTKEGHYDVDNAEHDILTDFVFGTVTKRNTFIGDEEAFAIYKEGAVDGRQYVSKDYTYEAFRKDYKGYKVHLTASNLGETVTSKVTATTDETYLVDVSDGEKVVHHMKLNIGSGAIMMENLAKGAKVIGTSGDFEQAKKIFDGEKSDRFFTWGQTNWIAFDLGEINLAKEWRLFNAETNTEIKTDSSLNVAKGRLQILKDTTIDLEKMDIKNRKEYLSNDENWTDVAQMDDAKAIFNSKLSNVLSRYWRFCVDGGASSYYPQYTELQILGQRLSNDVANTLKD
decrease in substrate affinity (KM) versus D184A [1, 5]: less than 2 fold
increase in catalytic turnover numbers (kcat) over D184A [1, 5]: more than 15 fold
increase in kcat/KM over D184A ([1]; Endo-S2, sugar oxazoline substrate): more than 10 fold
Km [1]: 229 ± 34.8 µM
kcat [1]: 2.7968 ± 0.3417 s⁻¹
catalytic turnover number compared with Endo-S D233M (in words) ([1]; for both the sugar oxazoline and the antibody substrates): significantly higher catalytic turnover number than Endo-S D233M
substrate affinity for the deglycosylated antibody (in words) ([2]; Asp-to-Met versus Asp-to-Ala mutant): significantly higher substrate affinity for the antibody than the Endo-S2 D184A mutant
Km [2, 6]: 32.6 ± 6.71 µM
kcat [2, 6]: 0.4973 ± 0.155 s⁻¹

B2: Endo-S2 D184A (protein)
chain: EEKTVQTGKTDQQVGAKLVQEIREGKRGPLYAGYFRTWHDRASTGIDGKQQHPENTMAEVPKEVDILFVFHDHTASDSPFWSELKDSYVHKLHQQGTALVQTIGVNELNGRTGLSKDYPDTPEGNKALAAAIVKAFVTDRGVDGLDIAIEHEFTNKRTPEEDARALNVFKEIAQLIGKNGSDKSKLLIMDTTLSVENNPIFKGIAEDLDYLLRQYYGSQGGEAEVDTINSDWNQYQNYIDASQFMIGFSFFEESASKGNLWFDVNEYDPNNPEKGKDIEGTRAKKYAEWQPSTGGLKAGIFSYAIDRDGVAHVPSTYKNRTSTNLQRHEVDNISHTDYTVSRKLKTLMTEDKRYDVIDQKDIPDPALREQIIQQVGQYKGDLERYNKTLVLTGDKIQNLKGLEKLSKLQKLELRQLSNVKEITPELLPESMKKDAELVMVGMTGLEKLNLSGLNRQTLDGIDVNSITHLTSFDISHNSLDLSEKSEDRKLLMTLMEQVSNHQKITVKNTAFENQKPKGYYPQTYDTKEGHYDVDNAEHDILTDFVFGTVTKRNTFIGDEEAFAIYKEGAVDGRQYVSKDYTYEAFRKDYKGYKVHLTASNLGETVTSKVTATTDETYLVDVSDGEKVVHHMKLNIGSGAIMMENLAKGAKVIGTSGDFEQAKKIFDGEKSDRFFTWGQTNWIAFDLGEINLAKEWRLFNAETNTEIKTDSSLNVAKGRLQILKDTTIDLEKMDIKNRKEYLSNDENWTDVAQMDDAKAIFNSKLSNVLSRYWRFCVDGGASSYYPQYTELQILGQRLSNDVANTLKD
Km [1]: 121 ± 17.1 µM
kcat [1]: 0.17 ± 0.0395 s⁻¹
Km [2, 6]: > 680 µM
KM value relative to Endo-S2 D184M ([2]; deglycosylated rituximab): more than 20 times

B3: Endo-S WT: wild-type Endo-S, endo-β-N-acetylglucosaminidase of Streptococcus pyogenes (SEQ ID NO: 1) (protein)
chain: MDKHLLVKRTLGCVCAATLMGAALATHHDSLNTVKAEEKTVQVQKGLPSIDSLHYLSENSKKEFKEELSKAGQESQKVKEILAKAQQADKQAQELAKMKIPEKIPMKPLHGPLYGGYFRTWHDKTSDPTEKDKVNSMGELPKEVDLAFIFHDWTKDYSLFWKELATKHVPKLNKQGTRVIRTIPWRFLAGGDNSGIAEDTSKYPNTPEGNKALAKAIVDEYVYKYNLDGLDVDVEHDSIPKVDKKEDTAGVERSIQVFEEIGKLIGPKGVDKSRLFIMDSTYMADKNPLIERGAPYINLLLVQVYGSQGEKGGWEPVSNRPEKTMEERWQGYSKYIRPEQYMIGFSFYEENAQEGNLWYDINSRKDEDKANGINTDITGTRAERYARWQPKTGGVKGGIFSYAIDRDGVAHQPKKYAKQKEFKDATDNIFHSDYSVSKALKTVMLKDKSYDLIDEKDFPDKALREAVMAQVGTRKGDLERFNGTLRLDNPAIQSLEGLNKFKKLAQLDLIGLSRITKLDRSVLPANMKPGKDTLETVLETYKKDNKEEPATIPPVSLKVSGLTGLKELDLSGFDRETLAGLDAATLTSLEKVDISGNKLDLAPGTENRQIFDTMLSTISNHVGSNEQTVKFDKQKPTGHYPDTYGKTSLRLPVANEKVDLQSQLLFGTVTNQGTLINSEADYKAYQNHKIAGRSFVDSNYHYNNFKVSYENYTVKVTDSTLGTTTDKTLATDKEETYKVDFFSPADKTKAVHTAKVIVGDEKTMMVNLAEGATVIGGSADPVNARKVFDGQLGSETDNISLGWDSKQSIIFKLKEDGLIKHWRFFNDSARNPETTNKPIQEASLQIFNIKDYNLDNLLENPNKFDDEKYWITVDTYSAQGERATAFSNTLNNITSKYWRVVFDTKGDRYSSPVVPELQILGYPLPNADTIMKTVTTAKELSQQKDKFSQKMLDELKIKEMALETSLNSKIFDVTAINANAGVLKDCIEKRQLLKK
modifications: Streptococcus pyogenes
Specific Hydrolysis Activity [3]: 2.77 100*(μmol/min/mg)
Transglycosylation Activity ([4]; deglycosylated rituximab 10.0 mg/mL, SCT-Oxa 1.38 mM (20 eq), enzyme 0.01 mg/mL, PBS pH 7.4, 30° C., duplicate): 25.89 100*(μmol/min/mg)
Transglycosylation/Hydrolysis Ratio T/H ([4]; ratio of transglycosylation to hydrolysis activity, Table 1): 9.35
